{"source": "patent US20180235193A1", "about": "(MINERVA BIOTECHNOLOGIES, published 2018)", "binders": {"B1": {"name": "MUC1* extracellular domain peptide PSMGFR (peptide)", "peptide": "GTINVHDVETQFNQYKTEAASRYNLTISDVSVSDVPFPFSAQSGA", "notes": "Synthetic peptide; also called PSMGFR peptide; MUC1* peptide"}}, "target": "T1, recombinant human NME7-AB (human, UniProt Q9Y5B8 92-376)", "T1 construct": "Truncated recombinant human NME7, about 33 kDa, active as a monomer; also called rhMNE7-AB", "T1 sequence": "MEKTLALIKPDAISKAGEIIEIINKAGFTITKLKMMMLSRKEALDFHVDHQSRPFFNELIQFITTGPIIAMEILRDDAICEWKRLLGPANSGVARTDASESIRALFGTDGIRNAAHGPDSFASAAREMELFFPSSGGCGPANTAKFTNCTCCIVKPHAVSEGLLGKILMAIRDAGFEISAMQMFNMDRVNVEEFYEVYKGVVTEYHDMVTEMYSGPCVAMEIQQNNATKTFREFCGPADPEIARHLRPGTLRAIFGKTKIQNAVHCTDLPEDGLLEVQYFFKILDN", "assay": "sandwich ELISA, PSMGFR peptide coated on the surface, HRP signal", "data": [{"binder": "B1", "values": [{"measurement": "binding result", "result": "binds"}]}]}
